For this data set, the system named is R2 protein (R2Bm reverse transcriptase/endonuclease) (Bombyx mori).

This is an account of results in patent publication US20060281079.

Where two headings read alike, the source gives them in different places.

Chain of R2 protein (R2Bm reverse transcriptase/endonuclease) (Bombyx mori) (chain, as listed by the source): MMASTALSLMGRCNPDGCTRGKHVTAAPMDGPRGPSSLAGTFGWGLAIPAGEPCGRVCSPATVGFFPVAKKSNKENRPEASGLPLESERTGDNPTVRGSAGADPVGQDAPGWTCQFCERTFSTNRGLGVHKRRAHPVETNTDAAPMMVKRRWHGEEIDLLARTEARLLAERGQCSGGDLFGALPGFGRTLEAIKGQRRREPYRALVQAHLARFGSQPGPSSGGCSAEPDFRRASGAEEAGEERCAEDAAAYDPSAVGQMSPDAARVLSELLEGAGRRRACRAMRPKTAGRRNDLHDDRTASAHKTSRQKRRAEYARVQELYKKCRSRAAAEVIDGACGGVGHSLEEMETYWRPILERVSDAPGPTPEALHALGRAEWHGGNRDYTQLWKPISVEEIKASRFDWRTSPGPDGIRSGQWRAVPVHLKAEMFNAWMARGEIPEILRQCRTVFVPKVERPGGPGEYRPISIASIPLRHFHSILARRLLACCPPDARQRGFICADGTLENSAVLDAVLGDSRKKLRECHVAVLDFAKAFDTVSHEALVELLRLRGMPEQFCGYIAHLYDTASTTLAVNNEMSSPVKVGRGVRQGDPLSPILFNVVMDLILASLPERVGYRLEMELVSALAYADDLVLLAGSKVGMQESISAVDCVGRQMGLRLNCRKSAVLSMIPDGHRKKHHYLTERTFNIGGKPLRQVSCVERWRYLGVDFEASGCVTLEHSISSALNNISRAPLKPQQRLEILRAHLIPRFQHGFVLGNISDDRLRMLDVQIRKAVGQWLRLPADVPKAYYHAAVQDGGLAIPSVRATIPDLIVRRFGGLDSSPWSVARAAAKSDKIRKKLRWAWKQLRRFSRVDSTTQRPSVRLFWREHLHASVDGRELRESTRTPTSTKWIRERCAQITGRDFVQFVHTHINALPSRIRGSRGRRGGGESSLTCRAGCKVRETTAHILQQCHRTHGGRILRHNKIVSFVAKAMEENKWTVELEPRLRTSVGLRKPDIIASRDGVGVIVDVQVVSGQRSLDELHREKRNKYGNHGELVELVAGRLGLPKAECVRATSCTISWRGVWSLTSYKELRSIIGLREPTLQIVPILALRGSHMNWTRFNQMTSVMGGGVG

183 nt vector RNA had a binding signal (RNA-primed reverse transcription relative to 254 nt R2 RNA, template jumps 15.1%) of 0.7.
As for 254 nt R2 3' UTR RNA, under “RNA-primed reverse transcription without target DNA, template jumps 12.9%”, the binding signal was 1.
Where the note is “RNA-primed reverse transcription relative to 254 nt R2 RNA, template jumps 3.9%”, 334 nt vector RNA displayed a binding signal of 0.44.
